{
  "source": "paper PMC2602864",
  "binders": {"B1": {"name": "EcoR124I HsdR subunit, wild type (enzyme)", "chain": "MTHQTHTIAESNNFIVLDKYIKAEPTGDSYQSESDLERELIQDLRNQGYEFISVKSQSAMLANVREQLQNLNGVVFNDSEWRRFTEQYLDNPSDGILDKTRKIHIDYICDFIFDDERLENIYLIDKKNLMRNKVQIIQQFEQAGSHANRYDVTILVNGLPLVQIELKKRGVAIREAFNQIHRYSKESFNSENSLFKYLQLFVISNGTDTRYFANTTKRDKNSFDFTMNWAKSDNTLIKDLKDFTATCFQKHTLLNVLVNYSVFDSSQTLLVMRPYQIAATERILWKIKSSFTAKNWSKPESGGYIWHTTGSGKTLTSFKAARLATELDFIDKVFFVVDRKDLDYQTMKEYQRFSPDSVNGSENTAGLKRNLDKDDNKIIVTTIQKLNNLMKAESDLPVYNQQVVFIFDECHRSQFGEAQKNLKKKFKRYYQFGFTGTPIFPENALGSETTASVFGRELHSYVITDAIRDEKVLKFKVDYNDVRPQFKSLETETDEKKLSAAENQQAFLHPMRIQEITQYILNNFRQKTHRTFPGSKGFNAMLAVSSVDAAKAYYATFKRLQEEAANKSATYKPLRIATIFSFAANEEQNAIGEISDETFDTSAMDSSAKEFLDAAIREYNSHFKTNFSTDSNGFQNYYRDLAQRVKNQDIDLLIVVGMFLTGFDAPTLNTLFVDKNLRYHGLMQAFSRTNRIYDATKTFGNIVTFRDLERSTIDAITLFGDKNTKNVVLEKSYTEYMEGFTDAATGEAKRGFMTVVSELEQRFPDPTSIESEKEKKDFVKLFGEYLRAENILQNYDEFATLKALQQIDLSDPVAVEKFKAEHYVDDEKFAELQTIRLPADRKIQDYRSAYNDIRDWQRREKEAEKKEKSTTDWDDVVFEVDLLKSQEINLDYILGLIFEHNRQNKGKGEMIEEVKRLIRSSLGNRAKEGLVVDFIQQTNLDDLPDKASIIDAFFTFAQREQQREAEALIKEENLNEDAAKRYIRTSLKREYATENGTELNETLPKLSPLNPQYKTKKQAVFQKIVSFIEKFKGVGGKI"}},
  "molecular_target": "EcoR124I core methyltransferase (HsdM2HsdS1) (not stated (hsd genes of the IncFIV plasmid R124, carried in E. coli)) (UniProt P10484)",
  "sequence (P10484 whole entry, chain 1 of 2)": "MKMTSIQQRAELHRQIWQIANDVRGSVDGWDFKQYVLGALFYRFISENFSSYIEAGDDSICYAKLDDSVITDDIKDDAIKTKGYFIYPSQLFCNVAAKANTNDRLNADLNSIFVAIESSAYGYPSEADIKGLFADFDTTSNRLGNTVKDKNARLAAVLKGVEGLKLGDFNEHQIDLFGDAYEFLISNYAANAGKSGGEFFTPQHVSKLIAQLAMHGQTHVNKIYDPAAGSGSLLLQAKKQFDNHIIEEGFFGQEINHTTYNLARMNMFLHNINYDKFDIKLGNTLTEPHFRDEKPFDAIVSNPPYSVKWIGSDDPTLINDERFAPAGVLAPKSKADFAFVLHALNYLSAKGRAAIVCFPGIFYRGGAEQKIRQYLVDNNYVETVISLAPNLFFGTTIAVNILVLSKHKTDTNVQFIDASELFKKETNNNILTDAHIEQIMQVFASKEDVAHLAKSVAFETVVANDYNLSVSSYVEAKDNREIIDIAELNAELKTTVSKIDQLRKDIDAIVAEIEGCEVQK",
  "sequence (P10485 whole entry, chain 2 of 2, further chain)": "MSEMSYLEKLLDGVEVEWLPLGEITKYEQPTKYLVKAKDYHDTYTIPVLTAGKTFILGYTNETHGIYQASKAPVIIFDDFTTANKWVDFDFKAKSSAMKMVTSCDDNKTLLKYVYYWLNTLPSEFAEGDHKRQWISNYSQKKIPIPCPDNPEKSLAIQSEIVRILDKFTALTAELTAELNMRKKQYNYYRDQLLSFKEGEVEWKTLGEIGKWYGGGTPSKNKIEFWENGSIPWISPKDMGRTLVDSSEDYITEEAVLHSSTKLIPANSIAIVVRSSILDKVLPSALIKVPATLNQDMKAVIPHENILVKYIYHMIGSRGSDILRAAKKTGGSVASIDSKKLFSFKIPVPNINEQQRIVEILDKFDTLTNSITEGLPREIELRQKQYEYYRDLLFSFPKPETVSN",
  "data": [
    {"binder": "B1", "values": [
      {"measurement": "mean lifetime of a DNA translocation event, R1 complex (one HsdR on the MTase), magnetic tweezers", "result": 0.95, "unit": "s"}
    ]}
  ]
}
